{
  "source": "paper doi:10.1101/2022.06.02.494630",
  "about": "(bioRxiv, 2022)",
  "binders": {"B1": {"name": "GST-tagged recombinant PfPHB1 (natural protein, Plasmodium falciparum (3D7), UniProt Q8IBC3 1-272, looked up)", "chain": "MERILSSIGKLSVVAGGLSLIPYTFIYDVDGGERCVMFNRFGGVSENTFGEGSHFYVPWFQTPYIYDIKMKPKVINTTTGTRDLQIVTISLRLLFRPHTQHLPYLHSTLGPDYDERVLPSIGNEVLKAVVAKYNAESLLTQRDKISKEIRESITARAKHFNILLDDVAITHLSYGKEFAKAIEDKQVAQQESERVKFIVAKTEQEKIAAVIKAQGEAEAAKLISSAVKEYGKSLIEIRKLEAAKEIAENLSKSKNVTYFPSNSNILLNPRDF", "modifications": "Lysine reactive dye (Monolith Protein Labelling Kit Red-NHS 2nd Generation), in the MST only"}},
  "molecular_target": "T1, GST-tagged recombinant PfPHB2 (Plasmodium falciparum (3D7), UniProt Q8IJP8 1-304)",
  "T1 sequence (looked up)": "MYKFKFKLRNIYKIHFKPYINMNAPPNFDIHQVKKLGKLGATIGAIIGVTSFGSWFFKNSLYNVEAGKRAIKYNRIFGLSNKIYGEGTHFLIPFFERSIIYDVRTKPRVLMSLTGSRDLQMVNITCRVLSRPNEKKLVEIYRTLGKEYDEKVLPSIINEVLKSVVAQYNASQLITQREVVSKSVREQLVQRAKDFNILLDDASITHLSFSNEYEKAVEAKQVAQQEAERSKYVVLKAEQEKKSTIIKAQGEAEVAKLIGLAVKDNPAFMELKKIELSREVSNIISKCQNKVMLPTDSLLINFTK",
  "assay": "MST",
  "data": [
    {"binder": "B1", "values": [
      {"measurement": "Kd", "result": "136 ± 10.5", "unit": "nM"}
    ]}
  ]
}
